Test results from article PMC5823669, “Multi-chaperone function modulation and association with cytoskeletal proteins are key features of the function of AIP in the pituitary gland” (Oncotarget, 2018).
One block for each binder: values may come before it.

Tests used:
[1] = target: T1, GST-tagged human AIP p.A299V (human, UniProt O00170 1-330, p.A299V); assay: affinity purification with mass spectrometry; GST pull-down: 10 ug of purified GST-AIP bait (WT or variant) against 2 mg total protein of GH3 cell lysate; eluates of four experiments pooled; TMTsixplex labelling, Orbitrap MS; peptide intensities minus the GST control, variants given as fold of the WT experiment (WT = 1); settings: one partner purified
T1 construct: AIP, human, UniProt O00170; also called GST-AIP A299V; not shown: GST, N-terminal, kept
T1 sequence (looked up): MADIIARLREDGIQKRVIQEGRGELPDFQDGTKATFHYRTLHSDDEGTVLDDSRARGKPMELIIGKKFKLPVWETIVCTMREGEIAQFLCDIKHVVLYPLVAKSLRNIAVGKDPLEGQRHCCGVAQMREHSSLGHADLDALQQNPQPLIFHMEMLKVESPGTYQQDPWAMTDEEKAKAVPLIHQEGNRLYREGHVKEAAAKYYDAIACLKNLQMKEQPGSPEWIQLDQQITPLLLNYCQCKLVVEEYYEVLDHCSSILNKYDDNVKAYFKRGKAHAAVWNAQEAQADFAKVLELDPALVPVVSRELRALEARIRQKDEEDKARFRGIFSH

[2] = target: T2, GST-tagged human AIP p.R304* (human, UniProt O00170 1-303); assay: as above; settings: one partner purified
T2 construct: AIP, human, UniProt O00170; natural nonsense variant c.910C>T, p.R304*: stop codon in place of R304, truncated protein ending at residue 303; The C-terminal limit 303 follows from the printed p.R304*; also called GST-AIP R304*; not shown: GST, N-terminal, kept
T2 sequence (looked up): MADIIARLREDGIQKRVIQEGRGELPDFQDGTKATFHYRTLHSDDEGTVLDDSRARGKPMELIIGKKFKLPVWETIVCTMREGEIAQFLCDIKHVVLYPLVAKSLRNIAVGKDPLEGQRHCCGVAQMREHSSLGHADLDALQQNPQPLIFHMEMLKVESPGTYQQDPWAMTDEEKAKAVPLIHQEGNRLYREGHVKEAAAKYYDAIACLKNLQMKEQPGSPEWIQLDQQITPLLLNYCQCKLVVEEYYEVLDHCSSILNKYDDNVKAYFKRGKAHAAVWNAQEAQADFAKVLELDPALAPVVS

normalized intensity value (fold of the WT AIP pull-down) [1]: 0.2 fold of WT
B1: NDKA_RAT Nucleoside diphosphate kinase A (Nme1) (natural protein, R. norvegicus (endogenous in GH3), UniProt Q05982 1-152, looked up)
chain: MANSERTFIAIKPDGVQRGLVGEIIKRFEQKGFRLVGLKFIQASEDLLKEHYIDLKDRPFFSGLVKYMHSGPVVAMVWEGLNVVKTGRVMLGETNPADSKPGTIRGDFCIQVGRNIIHGSDSVESAEKEISLWFQPEELVDYKSCAQNWIYE
notes: Nucleoside diphosphate kinase A, rat, UniProt Q05982; also called NME/NM23 nucleoside diphosphate kinase 1; source: endogenous, GH3 cell lysate

normalized intensity value (fold of the WT AIP pull-down) [2]: 0.3 fold of WT
B2: TBB2A_RAT Tubulin beta-2A chain (Tubb2a) (natural protein, R. norvegicus (endogenous in GH3), UniProt P85108 1-445, looked up)
chain: MREIVHIQAGQCGNQIGAKFWEVISDEHGIDPTGSYHGDSDLQLERINVYYNEAAGNKYVPRAILVDLEPGTMDSVRSGPFGQIFRPDNFVFGQSGAGNNWAKGHYTEGAELVDSVLDVVRKESESCDCLQGFQLTHSLGGGTGSGMGTLLISKIREEYPDRIMNTFSVMPSPKVSDTVVEPYNATLSVHQLVENTDETYSIDNEALYDICFRTLKLTTPTYGDLNHLVSATMSGVTTCLRFPGQLNADLRKLAVNMVPFPRLHFFMPGFAPLTSRGSQQYRALTVPELTQQMFDSKNMMAACDPRHGRYLTVAAIFRGRMSMKEVDEQMLNVQNKNSSYFVEWIPNNVKTAVCDIPPRGLKMSATFIGNSTAIQELFKRISEQFTAMFRRKAFLHWYTGEGMDEMEFTEAESNMNDLVSEYQQYQDATADEQGEFEEEEGEDEA
notes: Tubulin beta-2A chain, rat, UniProt P85108; source: endogenous, GH3 cell lysate

normalized intensity value (fold of the WT AIP pull-down) [2]: 0.2 fold of WT
B3: TBB5_RAT Tubulin beta-5 chain (Tubb5) (natural protein, R. norvegicus (endogenous in GH3), UniProt P69897 1-444, looked up)
chain: MREIVHIQAGQCGNQIGAKFWEVISDEHGIDPTGTYHGDSDLQLDRISVYYNEATGGKYVPRAILVDLEPGTMDSVRSGPFGQIFRPDNFVFGQSGAGNNWAKGHYTEGAELVDSVLDVVRKEAESCDCLQGFQLTHSLGGGTGSGMGTLLISKIREEYPDRIMNTFSVVPSPKVSDTVVEPYNATLSVHQLVENTDETYCIDNEALYDICFRTLKLTTPTYGDLNHLVSATMSGVTTCLRFPGQLNADLRKLAVNMVPFPRLHFFMPGFAPLTSRGSQQYRALTVPELTQQVFDAKNMMAACDPRHGRYLTVAAVFRGRMSMKEVDEQMLNVQNKNSSYFVEWIPNNVKTAVCDIPPRGLKMAVTFIGNSTAIQELFKRISEQFTAMFRRKAFLHWYTGEGMDEMEFTEAESNMNDLVSEYQQYQDATAEEEEDFGEEAEEEA
notes: Tubulin beta-5 chain, rat, UniProt P69897; also called tubulin beta chain; source: endogenous, GH3 cell lysate
